According to US20250034248A1 (ALBERT EINSTEIN COLLEGE OF MEDICINE, published 2025):
Read-outs that look alike come from different tables or passages of the source. Blank lines part the entries; values can stand above or below the binder they belong to.

How the values were obtained:
human Tim-3 protein [1] = target: T1, human Tim-3 protein (human, UniProt Q8TDQ0 22-202, limits assumed); test: Surface plasmon resonance
human Tim-3 protein [2] = target: T1, human Tim-3 protein; test: surface plasmon resonance
human Tim-3 protein [3] = target: T1, human Tim-3 protein; test: surface plasmon resonance; remark: listed apart in the source
[4] = target: T2, mouse Tim-3 expressed on cell lines (mouse, UniProt Q8VIM0 20-281); test: FACS on cell lines expressing mouse Tim-3
T2 construct: whole, on cells

- Kd (human Tim-3 protein [1]): 0.32 nM
- koff (human Tim-3 protein [2]): 0.00029 s⁻¹
- kon (human Tim-3 protein [2]): 910000 M⁻¹ s⁻¹
B1: mAb 15B4 (antibody, V domains shown)
VH: EVQLQQSGAEVVRPGALVKLSCKASGFNIKDYYMHWVRQRPEQGLEWIGWIDPENDNTIYDPKFQDRASITADTSSNTAYLQLSSLTSEDTAVYYCARDFGYVAWLVYWGQGTLVTVSA
VL: DIVMTQSQEFMSTSVGDRVSITCKASQNVDTAVAWYQQKPGQSPKLLIYSASNRYTGVPDRFTGTGSGTDFTLTINNMQSEDLADYFCQQYSSYPTFGGRTKLEIKR
notes: Mouse hybridoma antibody, IgG1 with kappa chain

- Kd (human Tim-3 protein [1]): 0.13 nM
- koff (human Tim-3 protein [3]): 2.35e-05 s⁻¹
- kon (human Tim-3 protein [3]): 187000 M⁻¹ s⁻¹
- binding result [4]: no binding
B2: mAb 50B5 (antibody, V domains shown)
VH: EVQLQQSGPELVKPGASMKISCKASGYSFTGYTINWVKQSHGKNLEWIGLFNPYNGGTTFNQKFKGKATLTVDKSSSTAYMELLSLTSEDSAVYYCARRYYGYDAMDYWGQGTSVTVSS
VL: NIMMTQSPSSLAVSAGEKVTMSCKSSQSVLYSSNQKNHLAWYQQKPGQSPKLLIYWASTRESGVPDRFTGSGSGTDFTLTISSVQAEDLAVYYCHQYLSSYTFGGGTKLEIK
notes: as for B1
